Conditions in all cases: both partners purified
For experiment [1], the target named is T1, SES-2 (single epitope scaffold 2).
T1 construct: also called SES-2 scaffold; source: FreeStyle 293F cells, transfected, purified (nickel column, Superdex 200 Increase gel filtration)
Put plainly: SPR.

Experiment [2] concerns the target TES-1 (triple-epitope scaffold 1) (synthetic de novo design (grafts PfCSP …)). Put plainly: KinExA (kinetic exclusion assay).
A further experiment addresses T2, J3 junctional peptide (Plasmodium falciparum (identical to 3D7 …)).
T2 construct: also called junctional peptide (J3)
T2 chain: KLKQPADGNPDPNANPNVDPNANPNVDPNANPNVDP
Kind of experiment: ELISA; plates coated with peptide at 2 ug/mL in PBS; antibodies diluted fourfold from 10 ug/mL; peroxidase secondary antibody.

The values below come from article PMC13079917 (Proceedings of the National Academy of Sciences of the …, 2026).

B1: L9 Fab (Fab, V domains shown)
VH: QVKLVESGGGVVQPGRSLRLSCEASGFIFSTYGMHWVRQAPGKGLEWVAVIWFDGSNIYYADSVKGRFTISRDNSKNTVFMQMDSLRAEDTAVYYCHRNFYDGSGPFDYWGQGTLVTVSS
VL: DIQMTQSPSTLSASVGDRVTITCRASQFISRWLAWYQQKPGKAPKLLIYKASSLESGVPSRFSGSGSETHFTLTISSLQPDDVATYYCQEYTSYGRTFGQGTKVEIK
notes: source: for crystallization: ExpiCHO cells, purified (HiTrap Protein G HP, size exclusion chromatography)
For the molecule B1, binding in experiment [1] was characterised by a dissociation constant (Kd) of 29 nM.

B2: Monoclonal antibody L9 (human IgG) (antibody, V domains shown)
VH: B1 VH
VL: B1 VL
B2 showed a dissociation constant (Kd) in experiment [2] of 0.085 nM. The binding result with J3 junctional peptide is on record as “binds”.
